Numbered stars: 1 amine (or outer) side, 2 acyl side, 3 side chain; on linkers, the order of the positions; unused ones are H or OH. Bridge positions count the residues as written; N and C are the ends. Side chains are listed from the residue outwards. Ends that are not written are not given here. * marks the point of attachment. C20 diacid = O=C(O)CCCCCCCCCCCCCCCCCCC(=O)*; γGlu = O=C(O)[C@H](CCC(=O)[*:2])N[*:1]; AEEA = NCCOCCOCC(=O)O

Sequences and labels used below:
B1: N^ε1-[2-[2-[2-[[(4S)-4-carboxy-4-(19-carboxynonadecanoylamino)butanoyl]amino]ethoxy]ethoxy]acetyl]-[Arg17,Pro21,Pro27,Pro31,His35]-h-amylin (peptide)
peptide: K([AEEA-γGlu-C20 diacid])CNTATCATQRLANFLRHSSPNFGAIPSSTPVGSHTY-NH2
modifications: disulfide 2-7; N-terminus assumed
SMILES: CC[C@H](C)[C@H](NC(=O)[C@H](C)NC(=O)CNC(=O)[C@H](Cc1ccccc1)NC(=O)[C@H](CC(N)=O)NC(=O)[C@@H]1CCCN1C(=O)[C@H](CO)NC(=O)[C@H](CO)NC(=O)[C@H](Cc1c[nH]cn1)NC(=O)[C@H](CCCNC(=N)N)NC(=O)[C@H](CC(C)C)NC(=O)[C@H](Cc1ccccc1)NC(=O)[C@H](CC(N)=O)NC(=O)[C@H](C)NC(=O)[C@H](CC(C)C)NC(=O)[C@H](CCCNC(=N)N)NC(=O)[C@H](CCC(N)=O)NC(=O)[C@@H](NC(=O)[C@H](C)NC(=O)[C@@H]1CSSC[C@H](NC(=O)[C@@H](N)CCCCNC(=O)COCCOCCNC(=O)CC[C@H](NC(=O)CCCCCCCCCCCCCCCCCCC(=O)O)C(=O)O)C(=O)N[C@@H](CC(N)=O)C(=O)N[C@@H]([C@@H](C)O)C(=O)N[C@@H](C)C(=O)N[C@@H]([C@@H](C)O)C(=O)N1)[C@@H](C)O)C(=O)N1CCC[C@H]1C(=O)N[C@@H](CO)C(=O)N[C@@H](CO)C(=O)N[C@H](C(=O)N1CCC[C@H]1C(=O)N[C@H](C(=O)NCC(=O)N[C@@H](CO)C(=O)N[C@@H](Cc1c[nH]cn1)C(=O)N[C@H](C(=O)N[C@@H](Cc1ccc(O)cc1)C(N)=O)[C@@H](C)O)C(C)C)[C@@H](C)O
notes: also called compound 57
B2: N^ε1-[2-[2-[2-[[(4S)-4-carboxy-4-(19-carboxynonadecanoylamino)butanoyl]amino]ethoxy]ethoxy]acetyl]-[His14,Arg17,Pro21,Pro27,His34]-h-amylin (peptide)
peptide: K([AEEA-γGlu-C20 diacid])CNTATCATQRLAHFLRHSSPNFGAIPSSTNVGHNTY-NH2
modifications: disulfide 2-7; N-terminus assumed
SMILES: CC[C@H](C)[C@H](NC(=O)[C@H](C)NC(=O)CNC(=O)[C@H](Cc1ccccc1)NC(=O)[C@H](CC(N)=O)NC(=O)[C@@H]1CCCN1C(=O)[C@H](CO)NC(=O)[C@H](CO)NC(=O)[C@H](Cc1c[nH]cn1)NC(=O)[C@H](CCCNC(=N)N)NC(=O)[C@H](CC(C)C)NC(=O)[C@H](Cc1ccccc1)NC(=O)[C@H](Cc1c[nH]cn1)NC(=O)[C@H](C)NC(=O)[C@H](CC(C)C)NC(=O)[C@H](CCCNC(=N)N)NC(=O)[C@H](CCC(N)=O)NC(=O)[C@@H](NC(=O)[C@H](C)NC(=O)[C@@H]1CSSC[C@H](NC(=O)[C@@H](N)CCCCNC(=O)COCCOCCNC(=O)CC[C@H](NC(=O)CCCCCCCCCCCCCCCCCCC(=O)O)C(=O)O)C(=O)N[C@@H](CC(N)=O)C(=O)N[C@@H]([C@@H](C)O)C(=O)N[C@@H](C)C(=O)N[C@@H]([C@@H](C)O)C(=O)N1)[C@@H](C)O)C(=O)N1CCC[C@H]1C(=O)N[C@@H](CO)C(=O)N[C@@H](CO)C(=O)N[C@H](C(=O)N[C@@H](CC(N)=O)C(=O)N[C@H](C(=O)NCC(=O)N[C@@H](Cc1c[nH]cn1)C(=O)N[C@@H](CC(N)=O)C(=O)N[C@H](C(=O)N[C@@H](Cc1ccc(O)cc1)C(N)=O)[C@@H](C)O)C(C)C)[C@@H](C)O
notes: also called compound 80
B3: N^ε1-[2-[2-[2-[[(4S)-4-carboxy-4-(19-carboxynonadecanoylamino)butanoyl]amino]ethoxy]ethoxy]acetyl]-[Arg17,Pro21,Pro27,Pro34,His35]-h-amylin (peptide)
peptide: K([AEEA-γGlu-C20 diacid])CNTATCATQRLANFLRHSSPNFGAIPSSTNVGPHTY-NH2
modifications: disulfide 2-7; N-terminus assumed
SMILES: CC[C@H](C)[C@H](NC(=O)[C@H](C)NC(=O)CNC(=O)[C@H](Cc1ccccc1)NC(=O)[C@H](CC(N)=O)NC(=O)[C@@H]1CCCN1C(=O)[C@H](CO)NC(=O)[C@H](CO)NC(=O)[C@H](Cc1c[nH]cn1)NC(=O)[C@H](CCCNC(=N)N)NC(=O)[C@H](CC(C)C)NC(=O)[C@H](Cc1ccccc1)NC(=O)[C@H](CC(N)=O)NC(=O)[C@H](C)NC(=O)[C@H](CC(C)C)NC(=O)[C@H](CCCNC(=N)N)NC(=O)[C@H](CCC(N)=O)NC(=O)[C@@H](NC(=O)[C@H](C)NC(=O)[C@@H]1CSSC[C@H](NC(=O)[C@@H](N)CCCCNC(=O)COCCOCCNC(=O)CC[C@H](NC(=O)CCCCCCCCCCCCCCCCCCC(=O)O)C(=O)O)C(=O)N[C@@H](CC(N)=O)C(=O)N[C@@H]([C@@H](C)O)C(=O)N[C@@H](C)C(=O)N[C@@H]([C@@H](C)O)C(=O)N1)[C@@H](C)O)C(=O)N1CCC[C@H]1C(=O)N[C@@H](CO)C(=O)N[C@@H](CO)C(=O)N[C@H](C(=O)N[C@@H](CC(N)=O)C(=O)N[C@H](C(=O)NCC(=O)N1CCC[C@H]1C(=O)N[C@@H](Cc1c[nH]cn1)C(=O)N[C@H](C(=O)N[C@@H](Cc1ccc(O)cc1)C(N)=O)[C@@H](C)O)C(C)C)[C@@H](C)O
notes: also called compound 58
B4: N^ε1-[2-[2-[2-[[(4S)-4-carboxy-4-(19-carboxynonadecanoylamino)butanoyl]amino]ethoxy]ethoxy]acetyl]-[His14,Arg17,Pro21,Pro27,Arg34]-h-amylin (peptide)
peptide: K([AEEA-γGlu-C20 diacid])CNTATCATQRLAHFLRHSSPNFGAIPSSTNVGRNTY-NH2
modifications: disulfide 2-7; N-terminus assumed
SMILES: CC[C@H](C)[C@H](NC(=O)[C@H](C)NC(=O)CNC(=O)[C@H](Cc1ccccc1)NC(=O)[C@H](CC(N)=O)NC(=O)[C@@H]1CCCN1C(=O)[C@H](CO)NC(=O)[C@H](CO)NC(=O)[C@H](Cc1c[nH]cn1)NC(=O)[C@H](CCCNC(=N)N)NC(=O)[C@H](CC(C)C)NC(=O)[C@H](Cc1ccccc1)NC(=O)[C@H](Cc1c[nH]cn1)NC(=O)[C@H](C)NC(=O)[C@H](CC(C)C)NC(=O)[C@H](CCCNC(=N)N)NC(=O)[C@H](CCC(N)=O)NC(=O)[C@@H](NC(=O)[C@H](C)NC(=O)[C@@H]1CSSC[C@H](NC(=O)[C@@H](N)CCCCNC(=O)COCCOCCNC(=O)CC[C@H](NC(=O)CCCCCCCCCCCCCCCCCCC(=O)O)C(=O)O)C(=O)N[C@@H](CC(N)=O)C(=O)N[C@@H]([C@@H](C)O)C(=O)N[C@@H](C)C(=O)N[C@@H]([C@@H](C)O)C(=O)N1)[C@@H](C)O)C(=O)N1CCC[C@H]1C(=O)N[C@@H](CO)C(=O)N[C@@H](CO)C(=O)N[C@H](C(=O)N[C@@H](CC(N)=O)C(=O)N[C@H](C(=O)NCC(=O)N[C@@H](CCCNC(=N)N)C(=O)N[C@@H](CC(N)=O)C(=O)N[C@H](C(=O)N[C@@H](Cc1ccc(O)cc1)C(N)=O)[C@@H](C)O)C(C)C)[C@@H](C)O
notes: also called compound 84
B5: N^ε1-[2-[2-[2-[[(4S)-4-carboxy-4-(19-carboxynonadecanoylamino)butanoyl]amino]ethoxy]ethoxy]acetyl]-[Arg17,Pro21,Pro27,Pro34]-h-amylin (peptide)
peptide: K([AEEA-γGlu-C20 diacid])CNTATCATQRLANFLRHSSPNFGAIPSSTNVGPNTY-NH2
modifications: disulfide 2-7; N-terminus assumed
SMILES: CC[C@H](C)[C@H](NC(=O)[C@H](C)NC(=O)CNC(=O)[C@H](Cc1ccccc1)NC(=O)[C@H](CC(N)=O)NC(=O)[C@@H]1CCCN1C(=O)[C@H](CO)NC(=O)[C@H](CO)NC(=O)[C@H](Cc1c[nH]cn1)NC(=O)[C@H](CCCNC(=N)N)NC(=O)[C@H](CC(C)C)NC(=O)[C@H](Cc1ccccc1)NC(=O)[C@H](CC(N)=O)NC(=O)[C@H](C)NC(=O)[C@H](CC(C)C)NC(=O)[C@H](CCCNC(=N)N)NC(=O)[C@H](CCC(N)=O)NC(=O)[C@@H](NC(=O)[C@H](C)NC(=O)[C@@H]1CSSC[C@H](NC(=O)[C@@H](N)CCCCNC(=O)COCCOCCNC(=O)CC[C@H](NC(=O)CCCCCCCCCCCCCCCCCCC(=O)O)C(=O)O)C(=O)N[C@@H](CC(N)=O)C(=O)N[C@@H]([C@@H](C)O)C(=O)N[C@@H](C)C(=O)N[C@@H]([C@@H](C)O)C(=O)N1)[C@@H](C)O)C(=O)N1CCC[C@H]1C(=O)N[C@@H](CO)C(=O)N[C@@H](CO)C(=O)N[C@H](C(=O)N[C@@H](CC(N)=O)C(=O)N[C@H](C(=O)NCC(=O)N1CCC[C@H]1C(=O)N[C@@H](CC(N)=O)C(=O)N[C@H](C(=O)N[C@@H](Cc1ccc(O)cc1)C(N)=O)[C@@H](C)O)C(C)C)[C@@H](C)O
notes: also called compound 50
B6: N^ε1-[2-[2-[2-[[(4S)-4-carboxy-4-(19-carboxynonadecanoylamino)butanoyl]amino]ethoxy]ethoxy]acetyl]-[Gly14,Arg17,Pro21,Pro27,Pro31]-h-amylin (peptide)
peptide: K([AEEA-γGlu-C20 diacid])CNTATCATQRLAGFLRHSSPNFGAIPSSTPVGSNTY-NH2
modifications: disulfide 2-7; N-terminus assumed
SMILES: CC[C@H](C)[C@H](NC(=O)[C@H](C)NC(=O)CNC(=O)[C@H](Cc1ccccc1)NC(=O)[C@H](CC(N)=O)NC(=O)[C@@H]1CCCN1C(=O)[C@H](CO)NC(=O)[C@H](CO)NC(=O)[C@H](Cc1c[nH]cn1)NC(=O)[C@H](CCCNC(=N)N)NC(=O)[C@H](CC(C)C)NC(=O)[C@H](Cc1ccccc1)NC(=O)CNC(=O)[C@H](C)NC(=O)[C@H](CC(C)C)NC(=O)[C@H](CCCNC(=N)N)NC(=O)[C@H](CCC(N)=O)NC(=O)[C@@H](NC(=O)[C@H](C)NC(=O)[C@@H]1CSSC[C@H](NC(=O)[C@@H](N)CCCCNC(=O)COCCOCCNC(=O)CC[C@H](NC(=O)CCCCCCCCCCCCCCCCCCC(=O)O)C(=O)O)C(=O)N[C@@H](CC(N)=O)C(=O)N[C@@H]([C@@H](C)O)C(=O)N[C@@H](C)C(=O)N[C@@H]([C@@H](C)O)C(=O)N1)[C@@H](C)O)C(=O)N1CCC[C@H]1C(=O)N[C@@H](CO)C(=O)N[C@@H](CO)C(=O)N[C@H](C(=O)N1CCC[C@H]1C(=O)N[C@H](C(=O)NCC(=O)N[C@@H](CO)C(=O)N[C@@H](CC(N)=O)C(=O)N[C@H](C(=O)N[C@@H](Cc1ccc(O)cc1)C(N)=O)[C@@H](C)O)C(C)C)[C@@H](C)O
notes: also called compound 71

The first test deals with T1, human calcitonin receptor (human, UniProt P30988 25-474).
T1 construct: whole, on cells; Assayed as cell membranes of BHK tk'ts 13 cells stably transfected with the human calcitonin receptor (Assay VII); also called hCTR; hCT
T1 sequence (looked up): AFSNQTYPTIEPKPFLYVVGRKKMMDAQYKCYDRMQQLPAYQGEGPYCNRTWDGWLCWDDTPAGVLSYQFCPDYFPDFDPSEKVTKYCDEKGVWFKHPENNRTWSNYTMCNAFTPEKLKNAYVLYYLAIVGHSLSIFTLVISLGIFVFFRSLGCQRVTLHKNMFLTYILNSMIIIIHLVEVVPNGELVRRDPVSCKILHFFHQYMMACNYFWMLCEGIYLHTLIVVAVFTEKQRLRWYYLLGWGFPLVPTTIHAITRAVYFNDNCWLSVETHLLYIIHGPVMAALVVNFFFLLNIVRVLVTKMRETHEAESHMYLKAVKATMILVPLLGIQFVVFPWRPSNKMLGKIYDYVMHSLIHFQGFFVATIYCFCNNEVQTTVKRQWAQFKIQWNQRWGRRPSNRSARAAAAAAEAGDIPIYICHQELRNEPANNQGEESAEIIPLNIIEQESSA
The test is described as follows: SPA competition vs 125I-calcitonin, membranes of BHK cells with human calcitonin receptor (Assay VII). The essentials: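 BHK hCTR membranes 35 ng/μL + SPA beads 0.05 mg/well; buffer 50 mM Hepes pH 7.4, 1 mM CaCl2, 5 mM MgCl₂, 0.1% OA, 0.02% Tween20. 120 min, 25° C., shaking. Scintillation count; IC50 by one-site binding competition.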
On to B1, for which the IC50 worked out at 15.3 nM.
Still for that read-out and setting: in the case of B2 it was 19.8 nM; in that of B3, 9.63 nM; in that of B4, 88.9 nM.
On the same count and under the same terms, the same measure for B5: 1.38 nM.
As for B6, the half-inhibitory concentration (IC50) turned out to be 1.53 nM.

The next test concerns the target T1, human calcitonin receptor. Briefly: IC50 at hCTR divided by IC50 at hAmylin-R (SPA competition assays V and VII). In short, it runs like this:
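IC₅₀ values were derived by one-site competition analysis of SPA counts. Cell membranes (35 ng/μL) with SPA beads were incubated with test compounds for 120 min at 25° C in Hepes buffer, pH 7.4, containing CaCl2, MgCl₂, OA and Tween20.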
Consider B1, for which the “Ratio hCT/hAmylin binding” value was 133.
Take B2: the “Ratio hCT/hAmylin binding” value was 68.1.
Same read-out and setting: the same measure for B3: 109; for B4: 120; for B5: 36.
With B6, the “Ratio hCT/hAmylin binding” value was 32.

The term IC50 denotes the concentration at which inhibition is half-maximal.

The record behind these values is US20140087995A1 (published 2014).
